# Assay: yeast display, Sf9 membrane polyspecificity reagent, FACS + sequencing; frameworks hold sequencing errors
# Summary of the method: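 Genes from sorted yeast were amplified by colony PCR, read by MiSeq 2 × 250 sequencing and filtered on CDR length. These cells carried a synthetic nanobody library in Saccharomyces cerevisiae BJ5465 and were sorted by FACS into low and high (top ~1%) gates on anti-HA and streptavidin fluorescence. Polyreactivity is labelled according to the gate of origin.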
row,Sequence,polyreactivity (PSR sort gate)
1,QVQLVESGGGLVQAGGSLRLSCAASGSIFRFYAMGWYRQATGKEREFVASITGTGGSTYYADSVKGRFTISRDNAKNTVYLQMNSLKPEDTAVYYCNARPYGWYDTYRLYGYWGQGTQVTVSS,high polyreactivity
2,QVQLVESGGGLVQAGGSLRLSCAASGSIFRGKAMGWSRQAPGKERELVAGINRAGSTKYADSVKGRFTISRDNAKNTVYLQMNSLKPEDTAVYYCAAVRYERGLWSDYWGLGTQVTVSS,high polyreactivity
3,QVQLVESGGGLVQAGGSLRLSCAASGSIFRGNAMGWYIQAPGKERELVAGINRAGSTKYADSVKGRFTISRDNAKNTVYLQMNSLKPEDTAVYYCAAVRYVRCLWSDYWGQGTKVTVSS,high polyreactivity
4,QVQLVESGGGLVQAGGSLRLSCAASGSIFRGNAMGWYRQAPGKERELVAAISKSGGSTYYADSVKGRFTISRDNAKNTVYLQMNSLKPEDTAVYYRAARTTYLYGMYYWGQGTQVTVSS,low polyreactivity
5,QVQLVESGGGLVQAGGSLRLSCAASGSIFRGNAMGWYRQAPGKEREMVAAISVSGSRTYYADSVKGRFTISRDNAKNTVYLQMNSLIPEDTAVYYCNAVLRVKGSGDFDYWGEGTQVTVSS,high polyreactivity
6,QVQLVESGGGLVQAGGSLRLSCAASGSIFRGYAMGWYRQAPGKERELVAAINWSGSSTYYADSVKGRFTISRDNAKNTVYLQMYSMKPEDSAVYYCALVYYNRNLGGDYWGQGTQVTVSS,low polyreactivity
7,QVQLVESGGGLVQAGGSLRLSCAASGSIFRGYAMGWYRQATGKERELVATIDSSAGSTYYADSVKGRFTISRDNAKNTVYLQMHSLKPEDTAVYYCATDPYGYYYSGFDYWGQGTQVTVSS,low polyreactivity
8,QVQLVESGGGLVQAGGSLRLSCAASGSIFRGYAMGWYRQEPEKERELVAAMSRRGGSTYYADSVKGRFSISRDNAKNTVYLQMNSLKPEDTAVYYCAKDGTGAGNYDYWGQGTQVTVSS,low polyreactivity
9,QVQLVESGGGLVQAGGSLRLSCAASGSIFRGYTMGWYRQAPGKERELVAAISRSGGSTYYADSVKGRFTISRDNAKNTVYIQMNSLKPEDTAVYYCNVVYFVTTSPGYDYWGQGTQVTVSS,high polyreactivity
10,QVQLVESGGGLVQAGGSLRLSCAASGSIFRHNAMGWYRQAPGKERELVAAITSRGGSTYYADSVKGRFTISRDNAKNTVYLQMNSLKPEDTAVYYFAADYSSLSWGYDYWGQGTQVTVSS,high polyreactivity
11,QVQLVESGGGLVQAGGSLRLSCAASGSIFRHYAMGWYSQAPGKERELVASITLRGGSTYYADSVKGPFTISRDNAKNTVYLQMNSLKPEDTAVYYCAKRAGPEYDYWGQGTQVTVSS,low polyreactivity
12,QVQLVESGGGLVQAGGSLRLSCAASGSIFRHYTMGWYRQAPGIERELVAVISSGGNTNYADSVKGRFTISRDNAKNTVYLQMNSLKPEDTAVDDCAARSHRYYSRVNYWGQGTQVTVSS,high polyreactivity
13,QVQLVESGGGLVQAGGSLRLSCAASGSIFRINAMGWYRQAPGKEREFVAAIRGSGGRTYYADSVKGRFTISRDNAKNTVYLQMNSLKPEDTAVYYCAADFSYRYFQRTSWPFDYWGQGTQVTVSS,high polyreactivity
14,QVQLVESGGGLVQAGGSLRLSCAASGSIFRINAMGWYRQAPGKERELVAAISTSGGTTYYADSVKGRFTISRDNAKNTVYLQMNSLKPEDTAVYYCAARRVTSPFGSDSWGQGTQVTVSS,low polyreactivity
15,QVQLVESGGGLVQAGGSLRLSCAASGSIFRIYAMGWYRQAPGKERELVAAISTSGVRTYYADSVKGRFTISRDNAKNTVYLQMNSLKPEDTAVYYCNARYVRPRGTGDFDYWGQGTQVTVSS,high polyreactivity
16,QVQLVESGGGLVQAGGSLRLSCAASGSIFRIYAMGWYRQAPGKERELVAAITKRGGSTYYADSVKGRFTISRDNAKNTVYLQMNSLKPEDTAVYYCAARFYSGYSYDYWGHGTQVTVSS,high polyreactivity
17,QVQLVESGGGLVQAGGSLRLSCAASGSIFRKKAMGWYRQAPGKERELVAAITGTGRTTYADSVKGRFTISRDNAKNTVYLQMNSLKPEDTAVYYCAAEYYYRYSYTNEGDYWGQGTQVTVSS,low polyreactivity
18,QVQLVESGGGLVQAGGSLRLSCAASGSIFRKNAMGWSRPAPGKERELVAVSTSSGASTYYADSVKGRFTISRDNAKNTVYVQMNSLKPEETAVYYCNAPSFYTKKMYSWGQGTQVTVSS,high polyreactivity
19,QVQLVESGGGLVQAGGSLRLSCAASGSIFRKNAMGWYRQAPGKERELVAAISSGGGGTYYADSVKGRFTISRDNAKNTVYLQMNSLKPEDTAVYYCNKREGKGGNTKYDYWGLGTQVTVSS,low polyreactivity
20,QVQLVESGGGLVQAGGSLRLSCAASGSIFRKNAMGWYRQAPGKERELVATISGGGSTTYADSVKGRFTISRDNAKNTVYLQMNSLKPEDTAVYYCAARSTWFQIRYGYWGQGTQVTVSS,high polyreactivity
21,QVQLVESGGGLVQAGGSLRLSCAASGSIFRKYAMGWYRQATGKERELVAVITTDGSTNYADSVKGRFTISRDNAKNTVYLQMNSLKPEDTAVYYCNAVRSSIGTDNDYWGQGTQVTVSS,low polyreactivity

row,Sequence,polyreactivity (PSR sort gate)
1,QVQLVESGGGLVQAGGSLRLSCAASGSIFRLYAKGSYRQAPGKERELVARITTGGSTNYADSVKGRFTISRDNANNTVYLQMNSLKPEDTAVYYSWGVPRRYYYWGQGTQVTVSS,high polyreactivity
2,QVQLVESGGGLVQAGGSLRLSCAASGSIFRLYAKGWYIQAPGKERELVAAISSGGSTYYADSVKGRFTISRDNAKNTVYLQMNSLKPEDTAVYYCNTAWTYWRYDYWGQGTQVTVSS,high polyreactivity
3,QVQLVESGGGLVQAGGSLRLSCAASGSIFRLYVMGWYRQAPGKERELVAAITLSGGSTYYADSVKGRFTISRDNAENTVYLQMNSLKPEDTAVYYCNRVTLYDITFDYWGQGTQVTVSS,low polyreactivity
4,QVQLVESGGGLVQAGGSLRLSCAASGSIFRNNTMGWYRQAPGKERELVAAISGRGTRTSYADSVKGRFTISRDNAKNTVYLQMNSLKPEDTAVYYCAAVYYWRPGWYVRFDYWGQGTQVTVSS,low polyreactivity
5,QVQLVESGGGLVQAGGSLRLSCAASGSIFRNYAMGWYRQAPGKERELVAAISRSGSSTFYADSVKGRFTISRDNAKNTVYLQMNSLKPEDTAVYYCAAVDYYTLTGYRYYWGQGTQVTVSS,high polyreactivity
6,QVQLVESGGGLVQAGGSLRLSCAASGSIFRNYAMGWYRQAPGKERELVASIRYSGGRTNYADSVKGRFTISRDNAKNTVYLQMNSLKPEDTAVYYCAADPGYGWQRAYYYWGQGTQVTVSS,high polyreactivity
7,QVQLVESGGGLVQAGGSLRLSCAASGSIFRPNAMGWNRQAPGKERELVAAINTSDDSTYYADSVKGRFTISRDNAKNTVYLQMNSLKPEDSAVYYCAADPRTYWTHSYYWGQGTQVTVSS,low polyreactivity
8,QVQLVESGGGLVQAGGSLRLSCAASGSIFRPNAMRWYRQAPGKERELVAAISSGDSTNYADSVKGRFTISRDNAKNTVYLLMNSLKAEDTAVYYCNTDKYSESYRSYEYWGQGTQVTVSS,low polyreactivity
9,QVQLVESGGGLVQAGGSLRLSCAASGSIFRPNTMGWYRQATGKERELVADIRYRGGGTYYADSVKGRFTITRDNATNTVYLQMNSLKPEDTAVYYCAKASAQWVQFDFWGQGNQVTVSS,high polyreactivity
10,QVQLVESGGGLVQAGGSLRLSCAASGSIFRPYAMGWYRQAPGKERELVAGITFIGGSTYYADSVKGRFTISRDNAKNTVYLQRNSLKPEDTAVYYCNADVAPGIFYGYDSWGQGTQVTVSS,low polyreactivity
11,QVQLVESGGGLVQAGGSLRLSCAASGSIFRPYAMGWYRQAPGKERVLVAAISRRGGSTYYADSVKGRFTISRDNAKNTVYLQMNSLKPEDTAVYYCAADHSRPSPYGYGYWGQGTQVTVSS,high polyreactivity
12,QVQLVESGGGLVQAGGSLRLSCAASGSIFRRNAMGWYRQAPGKERELVAAISSIGSSTYYADSVKGRFTISRDNAKNTVYLQMNSLKPEDTAVYYCAALYVQGTHTYGYWGQGTQVTVSS,high polyreactivity
13,QVQLVESGGGLVQAGGSLRLSCAASGSIFRRNAMGWYRQAPGKERELVAAITWRGDRTYYADSVKGRFTISRDNAKNTVYLQMNSLKPEDTAVYYCNKLGRIQYDYWGQGTQVTVSS,high polyreactivity
14,QVQLVESGGGLVQAGGSLRLSCAASGSIFRRYAMGWYRQAPGKEREFVAAITRSGGGTYYADSVKGRFTISRDNAKNTVYLQMNSLKPEDTAVYYCAADAPNFGLYRDKDYDYWGQGTQVTVSS,high polyreactivity
15,QVQLVESGGGLVQAGGSLRLSCAASGSIFRRYAMGWYRQAPGKERELVAAISRSGSSTYADSVKGRFTISRDNEKNTVYLQMNSLKPEDTEVYYCNRVRLNTEGFDYWGQGTQVTVSS,low polyreactivity
16,QVQLVESGGGLVQAGGSLRLSCAASGSIFRRYDMGWYRQAPGTERELVAAISSSGGSTYYADSVKGRFTISRDNAKNTVYLQMNILKPEDTAVYYCNTASNRYPGWRAEFDYWGQGTQVTVSS,low polyreactivity
17,QVQLVESGGGLVQAGGSLRLSCAASGSIFRSNAMGWYRPAPGKERELVAAISRRGGSTYYADSVKGRFTISRDNAKNPVYLQMNSLKPEDTAVYYCAAPTIVSGHDSWGQGTQVTVSS,high polyreactivity
18,QVQLVESGGGLVQAGGSLRLSCAASGSIFRSNAMGWYRQAPGKERELVAAITSGTRKYYADSVKGRFTISRDNAKNTVYLQMNSLKPEDTAVYYCATKGSKYDRGYWGQGTQVTVSS,high polyreactivity
19,QVQLVESGGGLVQAGGSLRLSCAASGSIFRSNAMGWYRQPPGKERELVAAITLSGGSTYYADSVKVRFTISRDNAKNTVYLQMNSLKPEDTAVYYCAAAYYLFSIHDYWGQGNQVTVSS,low polyreactivity
20,QVQLVESGGGLVQAGGSLRLSCAASGSIFRSNTMGWSRQAPGKERELVARISSTGGSTYYADSVKGRFTISRDNAKKTVYLQLNSLKPEDTAVYYCNKVRGINHLYDMNYWGQGTQVTVSS,high polyreactivity
